Measured values as given in US4701455A, “Biopterin analogs” (Burroughs Wellcome Co., priority 1983, dated 1987).

Tests used:
[1] = substrate: C[C@H](O)[C@H](O)[C@H]1CNc2nc(N)[nH]c(=O)c2N1; test: purified protein, by the assay type; details: other: rat liver enzyme; Km of substrate with the pterin as cofactor
[2] = substrate: C[C@H](O)[C@H](O)[C@H]1CNc2nc(N)[nH]c(=O)c2N1; test: cells, lysate or membranes named; details: other: Km of substrate with the pterin as cofactor

Protein	Km [1]	Km [2]
Phenylalanine hydroxylase (Rattus norvegicus) (protein) MAAVVLENGVLSRKLSDFGQETSYIEDNSNQNGAISLIFSLKEEVGALAKVLRLFEENDINLTHIESRPSRLNKDEYEFFTYLDKRTKPVLGSIIKSLRNDIGATVHELSRDKEKNTVPWFPRTIQELDRFANQILSYGAELDADHPGFKDPVYRARRKQFADIAYNYRHGQPIPRVEYTEEEKQTWGTVFRTLKALYKTHACYEHNHIFPLLEKYCGFREDNIPQLEDVSQFLQTCTGFRLRPVAGLLSSRDFLGGLAFRVFHCTQYIRHGSKPMYTPEPDICHELLGHVPLFSDRSFAQFSQEIGLASLGAPDEYIEKLATIYWFTVEFGLCKEGDSIKAYGAGLLSSFGELQYCLSDKPKLLPLELEKTACQEYSVTEFQPLYYVAESFSDAKEKVRTFAATIPRPFSVRYDPYTQRVEVLDNTQQLKILADSINSEVGILCNALQKIKS	123 µM	–
Tryptophan hydroxylase (Rattus norvegicus) (protein) MQPAMMMFSSKYWARRGLSLDSAVPEEHQILGGLTQNKATASKSEDKRSGKDTSESSKTAVVFSLKNEVGGLVRALRLFQEKHVNMLHIESRRSRRRSSEVEIFVDCECGKTEFNELIQLLKFQTTIVTLNPPDNIWTEEEELEDVPWFPRKISELDRCSHRVLMYGTELDADHPGFKDNVYRQRRKYFVDVAMGYKYGQPIPRVEYTEEETKTWGVVFRELSKLYPTHACREYLKNFPLLTKYCGYREDNVPQLEDVSMFLKERSGFTVRPVAGYLSPRDFLAGLAYRVFHCTQYVRHGSDPLYTPEPDTCHELLGHVPLLADPKFAQFSQEIGLASLGASDEDVQKLATCYFFTIEFGLCKQEGQLRAYGAGLLSSIGELKHALSDKACVKAFDPKTTCLQECLITTFQDAYFVSESFEEAKEKMRDFAKSITRPFSVYFNPYTQSIEILKDTRSIENVVQDLRSDLNTVCDALNKMNQYLGI	–	15 µM
